The values that follow come from US20130266605A1, “PEPTIDE INHIBITORS OF CD40L SIGNALING AND USES THEREFOR” (PHYLOGICA LIMITED, priority 2010, published 2013).

The term EC50 denotes the concentration needed to bring the measured effect to its halfway point.

Entries after “also recorded” stand apart in the source; their conditions may differ. Positions of bridges follow the written chain, without caps; N, C: chain ends. Residues, ends and D or L forms follow the SMILES beside them. Chains are numbered I, II in the order given. No end group written: not given here.

Assay [1] deals with LPS-induced expression of CD86 mediated by the Toll-like receptors TLR 2/4. As to the kind of experiment: LPS-induced CD86 expression control assay. The class given is cell-based. The conditions noted are these: in words; specificity control; listed as M1—18S. As to the method:
(§1) As a control in these assays, LPS-induced expression of CD86 mediated by the Toll-like receptors TLR 2/4, and TNFα-induced cytoxicity, were also assayed to exclude effects mediated by ligands other than CD40L.

Assay [2] relates to TNFα-induced cytoxicity. The assay can be described thus: TNFα-induced cytotoxicity control assay. Format: cell-based. The conditions noted are these: in words, specificity control. On the procedure:
as §1

Assay [3] has as its target CD40L-induced CD86 expression on primary B-cells (UniProt P29965). The assay can be described thus: Inhibition of CD40L-induced CD86 expression on primary B-cells (FACS). The conditions noted are these: in words.
Experimental: In one example, the ability of a peptide, analog or derivative of the invention to inhibit or reduce or delay expression of CD86 on primary B-cells was determined in the presence and absence of the peptides, analogs and derivatives of the invention. In particular, CD86 expression was determined by FACS.
Assay [4] has as its target T1, CD40 ligand (UniProt P29965 108-261, limits assumed).
T1 sequence (looked up): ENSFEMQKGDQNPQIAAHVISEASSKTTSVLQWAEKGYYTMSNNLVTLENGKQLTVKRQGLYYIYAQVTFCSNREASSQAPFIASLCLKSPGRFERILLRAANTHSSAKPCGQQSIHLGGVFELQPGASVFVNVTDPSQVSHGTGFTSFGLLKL
The assay can be described thus: cell-based or functional assay.

Assay [5] deals with T1, CD40 ligand. The assay can be described thus: Alphascreen proximity assay, inhibition of CD40L-CD40. On the technique in general: Bead proximity is the source of the signal in Alpha formats.
In assay [6] the target is T1, CD40 ligand. The assay can be described thus: Alphascreen proximity assay, peptide dimer titrated against 0.75nM CD40L; blocked interaction: CD40L with CD40; signal falls from about 23000 to about 4000 units.
Assay [7] addresses T1, CD40 ligand. The assay can be described thus: Alphascreen proximity assay (1hr), peptide titrated against 0.75nM CD40L; blocked interaction: CD40L with CD40; signal falls from about 27500 to about 5000 units.
The target in assay [8] is T1, CD40 ligand. As to the kind of experiment: Alphascreen proximity assay, peptide dimer titrated against 0.75nM CD40L; blocked interaction: CD40L with CD40; signal falls from about 12500 to about 4000 units.
The target in assay [9] is T1, CD40 ligand. As to the kind of experiment: from the KD values of Table 2 (Octet Red). For orientation: BLI is a label-free optical method that tracks binding on a fibre tip over time.
Assay [10] has as its target T1, CD40 ligand. The assay can be described thus: Alphascreen proximity assay (1hr), peptide titrated against 0.75nM CD40L; blocked interaction: CD40L with CD40; signal falls from about 21000 to about 3000 units.

Sequence of CD40L-induced CD86 expression on primary B-cells (P29965 whole entry): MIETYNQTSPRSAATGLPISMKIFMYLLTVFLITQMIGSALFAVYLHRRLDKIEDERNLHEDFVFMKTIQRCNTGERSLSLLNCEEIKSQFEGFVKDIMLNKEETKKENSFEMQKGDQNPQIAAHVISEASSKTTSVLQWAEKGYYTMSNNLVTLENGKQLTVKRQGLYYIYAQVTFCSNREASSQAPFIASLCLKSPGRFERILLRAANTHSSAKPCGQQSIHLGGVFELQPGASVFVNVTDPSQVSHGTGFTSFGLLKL
Sequence of CD40L-induced CD86 expression on primary B-cells (P25942 21-277 partner): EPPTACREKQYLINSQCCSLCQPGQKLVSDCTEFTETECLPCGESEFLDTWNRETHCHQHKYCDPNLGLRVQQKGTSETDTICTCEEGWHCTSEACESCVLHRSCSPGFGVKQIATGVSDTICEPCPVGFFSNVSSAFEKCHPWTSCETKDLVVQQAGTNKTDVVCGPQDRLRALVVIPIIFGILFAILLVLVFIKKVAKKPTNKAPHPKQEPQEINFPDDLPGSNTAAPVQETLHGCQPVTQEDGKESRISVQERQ

As to `CC[C@H](C)[C@H](NC(=O)[C@H](CO)NC(=O)[C@H](Cc1c[nH]c2ccccc12)NC(=O)[C@H](CCC(N)=O)NC(=O)[C@@H](NC(=O)[C@@H]1CCCN1C(=O)[C@H](Cc1ccccc1)NC(=O)[C@H](Cc1ccccc1)NC(=O)[C@H](Cc1c[nH]c2ccccc12)NC(=O)CNC(=O)[C@H](Cc1ccc(O)cc1)NC(=O)[C@H](CCCCN)NC(=O)[C@H](CC(C)C)NC(=O)[C@@H](NC(=O)[C@H](Cc1c[nH]cn1)NC(=O)[C@H](CO)NC(=O)[C@H](CCCNC(=N)N)NC(=O)[C@H](Cc1ccc(O)cc1)NC(=O)[C@@H]1CCCN1C(=O)[C@@H](NC(=O)[C@H](Cc1ccccc1)NC(=O)[C@@H]1CCCN1C(=O)[C@@H](N)CC(C)C)C(C)C)C(C)C)C(C)C)C(=O)N[C@@H](Cc1ccccc1)C(=O)N[C@@H](C)C(=O)N[C@H](C(=O)N[C@@H](CC(C)C)C(=O)N1CCC[C@H]1C(=O)N[C@@H](Cc1ccccc1)C(=O)N[C@@H](CCC(N)=O)C(=O)N[C@@H](Cc1ccc(O)cc1)C(=O)N[C@@H](CC(C)C)C(=O)N[C@@H](Cc1c[nH]cn1)C(=O)N[C@@H](CCCNC(=N)N)C(=O)N[C@@H](CO)C(=O)N[C@@H](CCCNC(=N)N)C(=O)O)C(C)C` [CD40L M1_18s] (H-LPFVPYRSHVLKYGWFFPVQWSIFAVLPFQYLHRSR-OH; N-terminus and C-terminus assumed), the “inhibition of LPS-induced CD86 expression” value in [1] is recorded as “lack of concentration-dependent inhibition; also recorded: no significant inhibition”. For the same molecule, the “significant inhibition of TNFα-induced cell death / cytoxicity” value is listed as “lack of inhibition” in [2] (listed as M1—18*S) and “none” in [2] (listed as M1—18S). The “inhibition of CD40L-induced CD86 expression on primary B-cells” value in assay [3] is recorded as “concentration-dependent inhibition”.

B1: Cys_M1_6S-Cys_M1_9S heterodimer (peptide)
peptide 1: CHPFSIKNVFSIWNFFSVY
peptide 2: CPPRYNLFFLFRFYSSFRRDYLYF
modifications: disulfide I:1-II:1
notes: also called 6-9 dimer
On to B1, for which the “EC50, inhibition of CD40L-induced CD86 expression on primary B-cells” value (“EC50, inhibition” below) in [4] came to 35 nM. The values for the 50% effective concentration (EC50) in assay [5] and in assay [6] were 0.03 nM and 30 nM, respectively.

B2: M7_189S (peptide)
peptide: LLLFFFSPPFSIFSFSLTTLS
notes: Cys-to-Ser derivative; also called M1-189Sa
For the molecule B2, the “EC50, inhibition” value in assay [4] came to 176 nM. The 50% effective concentration (EC50) was 0.176 nM in assay [5] and 176 nM in assay [7].

B3: Cys_M1_6S homodimer (peptide)
peptide: CHPFSIKNVFSIWNFFSVY
modifications: also: homodimer: disulfide between the N-terminal cysteines of two chains
notes: also called 6-6 dimer; homodimer of the Phylomer peptide M1-6
Regarding B3, the “EC50, inhibition” value in [4] amounted to 48.9 nM. In addition, the figures for the half-maximal effective concentration (EC50) in assay [5] and in [8] were 0.0489 nM and 48.9 nM, respectively.

B4: CD40L D1_0014 (peptide)
peptide: PFTWRPTIFWIIQLIVYMRHFGGGGSRSELLRENICRYVSLFDHPLQRNTPLDELRFVIFDTETSGFDLVKDRILSIR
notes: Single-chain fusion of two peptide monomers; also called heterodimeric peptide of CD40L M1-206 and a second monomer with tetra-glycine spacer
For the molecule B4, the “fold higher affinity than the base monomeric peptide CD40L M1-206” value in assay [9] is 6 fold.

B5: CD40L M1_9s (peptide)
peptide: PPRYNLFFLFRFYSSFRRDYLYF
notes: Cys-to-Ser derivative; also called M1-9Sa
For B5, in assay [4], the “EC50, inhibition” value is 564 nM. The EC50 in [5] came to 0.564 nM; in assay [10], 564 nM.
